Settings: Aspergillus oryzae (strain ATCC 42149 / RIB 40), pH 6, Thermal, DSC, sodium acetate calcium acetate 20 mM 2 mM, Mops 50 mM, reversible: yes, whole UniProt chain shown

B1: Guanyl-specific ribonuclease T1 wild type, P00651 (protein)
chain: MMYSKLLTLTTLLLPTALALPSLVERACDYTCGSNCYSSSDVSTAQAAGYQLHEDGETVGSNSYPHKYNNYEGFDFSVSSPYYEWPILSSGDVYSGGSPGADRVVFNENNQLAGVITHTGASGNNFVECT
heat capacity change of unfolding (25 °C): 0.98 kcal/mol/K | unfolding free energy (25 °C): 7.82 kcal/mol | Tm: 57.2 °C | unfolding enthalpy (calorimetric): 96.6 kcal/mol
